The target in experiment [1] is APP-D8, N-terminally myc-tagged APP695 (human) (UniProt P05067).
Experiment [2] addresses APPΔF616, N-terminally myc-tagged APP695 (human) (UniProt P05067).
Experiment [3] deals with APPΔS622, N-terminally myc-tagged APP695 (human) (UniProt P05067).

This is an account of results in article PMC4253958.

A value given as a limit tells only on which side of the number the result lay.

As to “APP-D8, N-terminally myc-tagged APP695 (from UniProt P05067-4 18-695) (natural protein)”, the S2 cell aggregation assay: clustered transfected cells, compared to APPwt expressing cells in experiment [1] was 2 fold. On to “APPΔF616, N-terminally myc-tagged APP695 (from UniProt P05067-4 18-695) (natural protein)”, for which, in experiment [2], the S2 cell aggregation assay: clustered transfected cells, compared to APPwt expressing cells was above 2 fold. “APPΔS622, N-terminally myc-tagged APP695 (from UniProt P05067-4 18-695) (natural protein)” had an S2 cell aggregation assay: clustered transfected cells, compared to APPwt expressing cells in experiment [3] above 2 fold.
